From patent US20200102374A1 (VIB VZW, published 2020)

Assays:
[1] = target: F protein of RSV A2 virus (respiratory syncytial virus A2, UniProt P03420 26-574); assay: cell-based or functional assay
[2] = target: F protein of RSV B49 virus (respiratory syncytial virus B49); assay: cell-based or functional assay

F protein of RSV A2 virus, sequence (P03420 26-574): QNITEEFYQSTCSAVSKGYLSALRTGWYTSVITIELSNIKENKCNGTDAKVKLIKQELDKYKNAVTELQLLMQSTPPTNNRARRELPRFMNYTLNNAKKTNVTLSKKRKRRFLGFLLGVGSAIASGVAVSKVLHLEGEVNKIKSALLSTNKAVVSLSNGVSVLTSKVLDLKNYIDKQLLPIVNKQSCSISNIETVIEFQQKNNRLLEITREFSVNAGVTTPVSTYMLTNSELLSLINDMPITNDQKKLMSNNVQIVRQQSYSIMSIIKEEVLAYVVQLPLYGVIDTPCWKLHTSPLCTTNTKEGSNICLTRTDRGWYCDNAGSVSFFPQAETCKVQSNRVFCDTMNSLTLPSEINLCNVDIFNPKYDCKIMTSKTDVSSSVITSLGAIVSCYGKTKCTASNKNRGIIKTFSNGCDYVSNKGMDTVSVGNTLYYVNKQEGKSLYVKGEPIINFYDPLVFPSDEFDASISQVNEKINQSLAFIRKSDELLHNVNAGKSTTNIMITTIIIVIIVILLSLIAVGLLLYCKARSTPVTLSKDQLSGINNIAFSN

Row | Binder | IC50 of in vitro neutralization of RSV A2 (plaque reduction on Vero cells) [1] [nM] | IC50 of neutralization of RSV B49 (plaque reduction on Vero cells) [2] [nM]
1 | VHH-DS-Cav1-4 (VHH) VHH: QVQLQESGGGLVQPGGSLRLSCAASGFTLDYYYIGWFRQAPGKEREAVSCISGSSGSTYYPDSVKGRFTISRDNAKNTVYLQMNSLKPEDTAVYYCATIRSSSWGGCVHYGMDYWGKGTQVTVSS | 0.021 | 0.015
2 | VHH-DS-Cav1-L66 (VHH) VHH: QVQLQESGGGLVQPGGSLRLSCAASGFTLDYYYIGWFRQAPGKEREGVSCISSSHGSTYYADSVKGRFTISRDNAKNTVYLQMNSLKPEDTAVYYCATVAVAHFRGCGVDGMDYWGKGTQVTVSS | 0.032 | 0.032
